Here are results for nine molecules from US20240010720A1 (IOMX THERAPEUTICS, published 2024).

For assay [1], the target named is T1, recombinant human IGSF11 (VSIG3) extracellular domain (ECD) (human, UniProt Q5DX21 23-241, biotinylated where captured on streptavidin).
T1 construct: also called biotinylated recombinant ECD-IGSF11; IGSF11 (ECD domain)
T1 sequence: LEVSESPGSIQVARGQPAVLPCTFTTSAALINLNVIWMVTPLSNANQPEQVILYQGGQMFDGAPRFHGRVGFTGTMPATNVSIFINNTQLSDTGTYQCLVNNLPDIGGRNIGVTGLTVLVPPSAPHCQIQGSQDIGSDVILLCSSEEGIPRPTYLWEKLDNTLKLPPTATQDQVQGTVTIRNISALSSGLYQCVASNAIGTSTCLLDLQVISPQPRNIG
The assay is described as follows: SPR, IgG1. In general terms: Surface plasmon resonance follows binding to a sensor surface in real time, without labels.

Assay [2] deals with T2, IGSF11 ECD fused to murine-Fc (human; mouse, UniProt Q5DX21 23-241).
T2 construct: also called Fc-fusion IGSF11 ECD; full-length ECD of IGSF11; not shown: murine Fc
T2 sequence: T1 sequence
Kind of assay: ELISA, IgG.

The target of assay [3] is T3, human IGSF11 (VSIG3) on cells (human, UniProt Q5DX21 23-431).
T3 sequence: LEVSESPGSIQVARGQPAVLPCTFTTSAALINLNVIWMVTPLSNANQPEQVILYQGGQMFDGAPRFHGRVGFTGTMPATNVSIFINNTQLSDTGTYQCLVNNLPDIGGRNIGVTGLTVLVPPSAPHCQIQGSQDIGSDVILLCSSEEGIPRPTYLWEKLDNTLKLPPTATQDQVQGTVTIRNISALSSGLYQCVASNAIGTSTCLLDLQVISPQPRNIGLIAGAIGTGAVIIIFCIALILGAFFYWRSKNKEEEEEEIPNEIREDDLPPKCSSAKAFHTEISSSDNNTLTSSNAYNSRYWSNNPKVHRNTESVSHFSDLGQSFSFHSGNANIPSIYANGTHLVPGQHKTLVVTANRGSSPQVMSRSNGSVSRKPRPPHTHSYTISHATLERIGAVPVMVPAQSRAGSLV
The assay is described as follows: FACS, IgG1-format antibodies; DMS 273 cells (D) treated with scrambled control siRNA (SC).

In assay [4] the target is T3, human IGSF11 (VSIG3) on cells. The assay is described as follows: FACS, IgG1-format antibodies; DMS 273 cells (D) treated with IGSF11 siRNA (KD). (A flow cytometer gives signals particle by particle.)
Assay [5] shares this target. Kind of assay: FACS, IgG1-format antibodies; M579-A2-luc cells (M) treated with scrambled control siRNA (SC).
The target is the same in assay [6]. Kind of assay: FACS, IgG1-format antibodies; M579-A2-luc cells (M) treated with IGSF11 siRNA (KD).
For assay [7] the target is unchanged. Kind of assay: FACS, IgG1-format antibodies; CL-11 cells (C), a line that does not express IGSF11 (specificity control), scrambled control siRNA (SC).
The target of assay [8] is T1, recombinant human IGSF11 (VSIG3) …. Kind of assay: BLI, IgG1. A general note: BLI is a label-free optical method that tracks binding on a fibre tip over time.
For assay [9], the target named is T3, human IGSF11 (VSIG3) on cells. The assay is described as follows: FACS, IgG1-format antibodies; CL-11 cells (C), a line that does not express IGSF11 (specificity control), IGSF11 siRNA (KD).
In assay [10] the target is T4, His-tagged extracellular domain (ECD) of human IGSF11 (VSIG3) (human, UniProt Q5DX21 23-241).
T4 construct: partly bought (SinoBiological 13094-H08H); also called IGSF11-HIS; HIS-IGSF11; not shown: HIS6 tag
T4 sequence: T1 sequence
The assay is described as follows: ELISA EC50 grade, IgG1.

Assay [11] addresses T3, human IGSF11 (VSIG3) on cells. Kind of assay: FACS, HEK cells expressing IGSF11.
Assay [12] concerns the target T5, IgC2 domain of human IGSF11 fused to murine IgG2a Fc-region (human; mouse, UniProt Q5DX21 137-241).
T5 construct: also called IgC2-like domain mFc fusion; not shown: murine IgG2a Fc-region
T5 sequence: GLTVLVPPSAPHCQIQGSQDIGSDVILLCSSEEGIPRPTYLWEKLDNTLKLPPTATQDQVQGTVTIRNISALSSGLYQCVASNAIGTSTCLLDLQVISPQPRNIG
The assay is described as follows: ELISA, IgG.

For assay [13], the target named is T2, IGSF11 ECD fused to murine-Fc. Kind of assay: ELISA, IgG. The source holds these as a separate data set.
Excerpt: Expi293 cells (ThermoFisher) were transiently transfected with DNA sequences encoding the applicable IGSF11 domain-mFc fusions according to the manufacturer's instructions, and cultured under conditions suitable to the IGSF11 domain fusion. Cell supernatants were harvested 5 days post transfection and the expressed Fc-protein purified via Protein A affinity chromatography (GE Healthcare). IGSF11 domain Fc-fusion proteins were re-buffered into PBS pH7.4. […] The surface was blocked with 2% (w/v) skim milk powder in PBST. After three wash cycles with PBST, a dilution series of IgG-format ABPs was transferred to the immobilized the Fc-fusion IGSF11 ECD or the IGSF11 domains and incubated for 1 h. After removing all unbound antibodies by 3 wash cycles with PBST, bound IgG ABPs were detected with a goat anti-human IgG antibody conjugated with horseradish peroxidase. After three wash cycles with PBST the ELISA was developed with TMB substrate.
For assay [14], the target named is T3, human IGSF11 (VSIG3) on cells. The assay is described as follows: FACS, DMS 273 cells.
Assay [15] deals with T4, His-tagged extracellular domain (ECD) …. Kind of assay: blocking ELISA: antibody pre-incubated with His-tagged IGSF11 ECD, complexes added to immobilised VSIR-Fc; y axis % remaining IGSF11 binding to VSIR, x axis nM IgG per legend.
Assay [16] has the same target. The assay is described as follows: ELISA: IgG1-format antibody titrated on coated His-tagged IGSF11; x axis nM IgG, y axis absorbance per legend.
Assay [17] shares this target. The assay is described as follows: blocking ELISA: antibody pre-incubated with His-tagged IGSF11 ECD, complexes added to immobilised VSIR-Fc; y axis % remaining IGSF11 binding to VSIR, x axis nM IgG per legend. This is another data set of the same source.
For assay [18] the target is unchanged. The assay is described as follows: ELISA: IgG1-format antibody titrated on coated His-tagged IGSF11; x axis nM IgG, y axis absorbance per legend. The source holds these as a separate data set.
The target in assay [19] is T6, murine IGSF11 on cells (mouse, UniProt P0C673 23-428).
T6 construct: UniProt P0C673; also called MC38-IGSF11 (murine); CT26-IGSF11 (murine)
T6 sequence: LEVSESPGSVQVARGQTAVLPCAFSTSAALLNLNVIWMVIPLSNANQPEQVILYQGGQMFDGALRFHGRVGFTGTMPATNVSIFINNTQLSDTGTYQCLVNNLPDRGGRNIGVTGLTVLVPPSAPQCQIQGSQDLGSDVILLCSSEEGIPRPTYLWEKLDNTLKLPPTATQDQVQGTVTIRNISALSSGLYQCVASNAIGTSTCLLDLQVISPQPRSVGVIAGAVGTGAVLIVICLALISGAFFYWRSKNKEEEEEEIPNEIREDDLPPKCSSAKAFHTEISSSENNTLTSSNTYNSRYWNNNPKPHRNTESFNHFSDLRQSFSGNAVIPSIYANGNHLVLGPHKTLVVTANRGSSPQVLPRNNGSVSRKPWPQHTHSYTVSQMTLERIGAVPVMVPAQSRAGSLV
The assay is described as follows: FACS, MC38-IGSF11 cells, IgG.
Excerpt: (§1) Unbound antibodies were removed by washing the cells three time with FACS buffer. Bound antibodies were detected with a mouse anti-human IgG antibody conjugated with AlexaFluor647.

Assay [20] addresses T1, recombinant human IGSF11 (VSIG3) …. Kind of assay: BLI, apparent affinity, IgG captured, IGSF11 ECD 100 nM.
Excerpt: Briefly, various APBs were loaded on an optical biosensor via a commercially available Capture System (AHC sensors, ForteBio).
Assay [21] deals with T3, human IGSF11 (VSIG3) on cells. The assay is described as follows: FACS, MDA-MB-231-IGSF11 cells, IgG.
Excerpt: as §1
In assay [22] the target is T6, murine IGSF11 on cells. Kind of assay: FACS, CT26-IGSF11 cells, IgG.
Excerpt: as §1

Where a chain is given by its changes, count along the chain named. Where two headings read alike, the source gives them in different places. Bounds are passed on as bounds.

B1: A-011 (IgG1 format) (antibody, V domains shown)
VH: QVQLVESGGGVVQPGRSLRLSCAASGFTFSSYAMHWVRQAPGKGLEWVAVISYDGSNKYYADSVKGRFTISRDNSKNTLYLQMNSLRAEDTAVYYCAEGGALNYYGMDVWGQGTTVTVSS
VL: SSELTQDPGVSVALGQTVRITCQGDSLRHFYATWYQQKPGQAPILVIYGKNNRPSGIPDRFSGSSSEDTASLTITGAQAEDEADYYCQSRDPRNNHLIFGGGTKLIVL
notes: human IgG1 format
The EC50 is the midpoint of the concentration-response curve. For the molecule B1, the Kd in assay [1] was 250 to 500 nM; in assay [8], 10 to 20 nM. Besides, the EC50 in [2] was less than 1 nM; in [10], less than 0.02 nM; in assay [11], more than 50 nM. For the same molecule, the “percentage binding (FACS heat-map)” value was determined as 6.95% in assay [3]; 3.4% in assay [4]; 2.05% in assay [5]; 2.41% in [6]; 2.87% in assay [7]; 4.86% in assay [9].

B2: C-014 (IgG1 format) (antibody, V domains shown)
VH: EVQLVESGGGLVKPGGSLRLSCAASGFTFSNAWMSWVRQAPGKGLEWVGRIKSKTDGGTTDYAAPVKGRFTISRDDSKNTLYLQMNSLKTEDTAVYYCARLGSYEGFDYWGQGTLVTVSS
VL: SYELTQPPSVSVSPGQTASITCSGDKLGDKYASWYQQKPGQSPVLVIYQDSKRPSGIPERFSGSNSGNTATLTISGTQAEDEADYYCSTYTVTSSVVVFGGGTKLTVL
notes: wildtype human IgG1 and kappa or lambda constant regions
On to B2, for which the results for the EC50 in [12] and in [13] were less than 1 nM and 1 to 20 nM, respectively.

B3: A-012 (IgG1 format) (antibody, V domains shown)
VH: EVQLLESGGGLIQPGGSLRLSCAVSGFTVSSNYMSWVRQAPGKGLEWVSVIYSGGSTYYADSVKGRFTISRDNSKNTLYLQMNSLRAEDTAVYYCARGNPYYYGDLQVNFDYWGQGTLVTVSS
VL: QAVVTQEPSLTVSPGGTVTLTCASSTGAVTSGYYPNWFQQKPGQAPRALIYSTSNKHSWTPARFSGSLLGGKAALTLSGVQPEDEAEYYCLLYYGGAWVFGGGTKLTVL
notes: human IgG1 format
By EC50 (read off the curve) is commonly meant the concentration needed to bring the measured effect to its halfway point. Low readings indicate an effect from little substance, high ones a need for much substance. Turning to B3, the Kd in assay [1] lay within 250 to 500 nM; in assay [8] it was 1 to 10 nM. The “percentage binding (FACS heat-map)” value in [3] is 75.8%; in assay [4], 4.77%; in assay [5], 65.4%; in assay [6], 2.35%; in assay [7], 5.11%; in assay [9], 3.93%. Besides, the results for the EC50 in assay [14], in assay [10] and in assay [11] were 10 to 50 nM, 0.02 to 0.05 nM and 10 to 50 nM, respectively. The “IC50 (read off the curve)” value in assay [15] was approximately 2 nM. For the same molecule, in assay [16], the “EC50 (read off the curve)” value is approximately 7 pM.

B4: B-005 (chain-swapped IgG1) (antibody, V domains shown)
VH: B3 VH
VL: B3 VL with L20P, A23G, Y33N, Y34L, F64I
notes: human IgG1 format; also called B5
For the molecule B4, in assay [15], the “IC50 (read off the curve)” value was approximately 2 nM. Moreover, the “EC50 (read off the curve)” value in [16] was approximately 10 pM.

B5: B-003 (chain-swapped IgG1) (antibody, V domains shown)
VH: B3 VH
VL: B3 VL with G16E, K41R, H57D
notes: human IgG1 format; also called B3
B5: the “IC50 (read off the curve)” value in assay [15] is approximately 2 nM. Besides, in assay [16], the “EC50 (read off the curve)” value is approximately 8 pM.

B6: B-006 (chain-swapped IgG1) (antibody, V domains shown)
VH: B3 VH with L5V, V24A
VL: B3 VL with G16E, K41R, H57D
notes: human IgG1 format; also called B6
As to B6, in [17], the “IC50 (read off the curve)” value is approximately 5 nM. Besides, the “EC50 (read off the curve)” value in [18] is approximately 0.02 nM.

B7: B-007 (chain-swapped IgG1) (antibody, V domains shown)
VH: B3 VH with L5V, V24A
VL: B3 VL with G32A, E87D
notes: human IgG1 format; also called B7
In the case of B7, the “IC50 (read off the curve)” value in [17] is approximately 3 nM. Further, the “EC50 (read off the curve)” value in assay [18] is approximately 0.01 nM.

B8: C-011 (IgG1 format) (antibody, V domains shown)
VH: QVQLVQSGAEVKKPGSSVKVSCKASGGTFSSYAISWVRQAPGQGLEWMGGIIPIFGTANYAQKFQGRVTITADESTSTAYMELSSLRSEDTAVYYCARHSTPSFLQYWGQGTLVTVSS
VL: SYELTQPPSVSVSPGQTASITCSGDKLGDKYASWYQQKPGQSPVLVIYQDSKRPSGIPERFSGSNSGNTATLTISGTQAEDEADYYCAVYPAHASARWVFGGGTKLTVL
notes: as for B2
On to B8, for which the EC50 in [12] and in [13] was less than 1 nM throughout.

B9: C-003 (IgG1 format) (antibody, V domains shown)
VH: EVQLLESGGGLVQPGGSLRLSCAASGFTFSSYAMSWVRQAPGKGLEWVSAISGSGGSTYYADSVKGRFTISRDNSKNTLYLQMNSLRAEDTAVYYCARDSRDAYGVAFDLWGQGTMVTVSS
VL: ASVLTQPPSVSAAPGQKVTISCSGSSSNIGNNYVSWYQQLPGTAPKLLIYDNNKRPSGIPDRFSGSKSGTSATLGITGLQAEDEADYYCLSYTSSQYVFGGGTKLTVL
notes: as for B2
On to B9, for which the EC50 with murine IGSF11 on cells [19] is less than 20 nM; in assay [12] it was less than 1 nM; in assay [13], less than 1 nM; in assay [21] it was 10 to 15 nM; with murine IGSF11 on cells [22] it was less than 20 nM. Further, the Kd in assay [20] is less than 15 nM.
